What was measured:
[1] = target: T1, SARS-CoV-2 Alpha Variant RBD (SARS-CoV-2 Alpha variant); test: ELISA, RBD coated
T1 construct: domain: RBD; coated on ELISA plates

[2] = target: T2, SARS-CoV-2 Gamma Variant RBD (SARS-CoV-2 Gamma variant); test: ELISA, RBD coated
T2 construct: domain: RBD; coated on ELISA plates

[3] = target: T3, SARS-CoV-2 Beta Variant RBD (SARS-CoV-2 Beta variant); test: ELISA, RBD coated
T3 construct: domain: RBD; coated on ELISA plates

[4] = target: T4, SARS-CoV-2 spike protein on pseudotyped lentivirus (Wuhan Reference Pseudovirus) (SARS-CoV-2, UniProt P0DTC2 14-1273); test: cell-based or functional assay
[5] = target: T5, SARS-CoV-2 Delta Variant RBD (SARS-CoV-2 Delta variant); test: ELISA, RBD coated
T5 construct: domain: RBD; coated on ELISA plates

[6] = target: T4, SARS-CoV-2 spike protein on pseudotyped …; test: cell-based or functional assay; remark: listed apart in the source

Binder | EC50 [1] | EC50 [2] | EC50 [3] | infectivity % under 10 ug/mL VHH treatment [4] | EC50 [5] | Pseudovirus neutralization IC50 [6]
PP1098 MBP-5HVZ-PAPA-RN-9-H6 (VHH) VHH: QVQLVESGGGLVQPGGSLRLSCAASGLRFAMTEMAWFRQAPGKQREFVALITEGGSGSYGDSVKGRFTISRDNAKNTVYLQMNSLKPEDTAVYYCAALHYTEGANTESATTFDYWGQGTQVTVSS | 0.97 nM | 11.2 nM | 24.8 nM | 58.3% | – | –
PP1109 MBP-5HVZ-PAPA-RN-25-H6 (VHH, Form: Dimer) VHH: QVQLVESGGGLVQPGGSLRLSCAASGEDYSYNAAHWFRQAPGKEREWVAAINSGGGTYYADSVKGRFTISRDNAKNTVYLQMNSLKPEDTAVYYCAYLGALDRDGYDAWGQGTQVTVSS | 1.12 nM | 11 nM | 17.1 nM | 88% | 115 nM | –
PP911 MBP-5HVZ-S2b-F7-H6 (VHH, Form: Dimer) VHH: QVQLVESGGGLVQPGGSLRLSCAASGSTLSNNAMHWFRQAPGKAREFVAAIGSSDSTDYKDSVKGRFTISRDNAKNTVYLQMNSLKPEDTAVYYCTALLDSGPGEYNYWGQGTQVTVSS | 2.19 nM | 317 nM | 545 nM | 74.9% | – | –
PP915 MBP-5HVZ-S3b-A7-H6 (VHH, Form: Dimer) VHH: QVQLVESGGGLVQPGGSLRLSCAASGSIASINAIHWVRQAPGKQREEVAAITSGGSTGYADSVKGRFTISRDNAKNTVYLQMNSLKPEDTAVYYCAAQPGQSYAVWGQGTQVTVSS | 0.52 nM | – | – | 90.5% | 37.8 nM | –
PP1096 MBP-5HVZ-PAPA-RN-3-H6 (VHH) VHH: QVQLVESGGGLVQPGGSLRLSCAASGFEFTYRAVHWFRQAPGKGREWVAGVVSGGSTYYADSVKGRFTISRDNAKNTVYLQMNSLKPEDTAVYYCNAGPQAEEDTYDYWGQGTQVTVSS | 1.92 nM | 28.4 nM | 63.2 nM | 86.5% | – | –
PP1160 MPB-scTRP-PAPA-R5a-C5-H6 (VHH, Form: Trimer) VHH: QVQLVESGGGLVQPGGSLRLSCAASGDIFSINALHWFRQAPGKQREEVAAITSGGSTGYADSVKGRFTISRDNAKNTVYLQMNSLKPEDTAVYYCAAQQARGGLDSDYWGQGTQVTVSS | – | – | – | 4.22% | – | 2.41 nM
PP1111 MBP-5HVZ-PAPA-RN-27-H6 (VHH, Form: Dimer) VHH: QVQLVESGGGLVQPGGSLRLSCAASGPQFSSNAVSWFRQAPGKEREWVAGITSGGSTDYADSVKGRFTISRDNAKNTVYLQMNSLKPEDTAVYYCTAPSVSDADRRTRDYWGQGTQVTVSS | 0.31 nM | 1.6 nM | 1.57 nM | 68.3% | 231 nM | –
PP1115 MBP-5HVZ-PAPA-RN-31-H6 (VHH, Form: Dimer) VHH: QVQLVESGGGLVQPGGSLRLSCAASGSTGSDYAMHWFRQAPGKDREWVAGISSYGSDSYGDSVKGRFTISRDNAKNTVYLQMNSLKPEDTAVYYCAALQASAGAGYYYDYWGQGTQVTVSS | 6.74 nM | 162 nM | 857 nM | 86.9% | – | –
PP1108 MBP-5HVZ-PAPA-RN-23-H6 (VHH, Form: Dimer) VHH: QVQLVESGGGLVQPGGSLRLSCAASGGEKSISAAHWYRQAPGKEREFVAAITAASTTSYADSVKGRFTISRDNAKNTVYLQMNSLKPEDTAVYYCTAVLYDSYDYWGQGTQVTVSS | 1.89 nM | 57.1 nM | 121 nM | 93.1% | – | –
PP1110 MBP-5HVZ-PAPA-RN-26-H6 (VHH, Form: Dimer) VHH: QVQLVESGGGLVQPGGSLRLSCAASGSISSINSMHWYRQAPGKEREWVAAVSSYGSDYYADSVKGRFTISRDNAKNTVYLQMNSLKPEDTAVYYCAARTVTGFTYGDYWGQGTQVTVSS | 4.98 nM | 8.98 nM | 17 nM | 57.9% | 407 nM | –
PP1112 MBP-5HVZ-PAPA-RN-28-H6 (VHH, Form: Dimer) VHH: QVQLVESGGGLVQPGGSLRLSCAASGSQFSHNLMSWFRQAPGKQREFVAAITSFGSTGYADSVKGRFTISRDNAKNTVYLQMNSLKPEDTAVYYCAALSSEDTSHYPRNYWGQGTQVTVSS | 1.76 nM | 3.01 nM | 4.77 nM | 70.4% | 15.1 nM | –
PP933 MBP-5HVZ-R5e-C1-H6 (VHH, Form: Dimer) VHH: QVQLVESGGGLVQPGGSLRLSCAASGSIPYVQAMSWFRQAPGKGREGVASIGWGGGTYYADSVKGRFTISRDNAKNTVYLQMNSLKPEDTAVYYCAAKFRENFSFYDYWGQGTQVTVSS | 9.74 nM | 9.73 nM | 10.2 nM | – | 8.87 nM | –
PP912 MBP-5HVZ-S2b-G8-H6 (VHH, Form: Dimer) VHH: QVQLVESGGGLVQPGGSLRLSCAASGSIQSYEAMHWFRQAPGKAREWVAVITWGDSTQYGDSVKGRFTISRDNAKNTVYLQMNSLKPEDTAVYYCAADVRQGYSSWGQGTQVTVSS | 1.96 nM | 177 nM | 365 nM | 73.2% | 622 nM | –
PP909 MBP-5HVZ-S2b-A7-H6 (VHH, Form: Dimer) VHH: QVQLVESGGGLVQPGGSLRLSCAASGSSDSWNALHWFRQAPGKEREFVAGISSAGSGYYADSVKGRFTISRDNAKNTVYLQMNSLKPEDTAVYYCNGYEHTTGYDYWGQGTQVTVSS | 0.44 nM | 5.37 nM | 8.1 nM | – | 81.4 nM | –
PP927 MBP-5HVZ-R1i-C8-H6 (VHH, Form: Dimer) VHH: QVQLVESGGGLVQPGGSLRLSCAASGRQFGAWRMHWYRQAPGKQREWVAGITSGTSGNYADSVKGRFTISRDNAKNTVYLQMNSLKPEDTAVYYCAATSHTTYHAEYWGQGTQVTVSS | 2.22 nM | – | – | 45.4% | 94.2 nM | –
PP930 MBP-5HVZ-R2b-D4-H6 (VHH, Form: Dimer) VHH: QVQLVESGGGLVQPGGSLRLSCAASGSYASIASMHWFRQAPGKQREFVAGLTSGGSRIYGDSVKGRFTISRDNAKNTVYLQMNSLKPEDTAVYYCTALILHYAGMYDYWGQGTQVTVSS | 3.9 nM | 10.2 nM | 13 nM | 35.6% | 21.1 nM | –
PP1094 MBP-5HVZ-PAPA-RN-1-H6 (VHH) VHH: QVQLVESGGGLVQPGGSLRLSCAASGYIFEGGPTAWFRQAPGKGREFVAAITTSGETSYAYSVKGRFTISRDNAKNTVYLQMNSLKPEDTAVYYCNATDRDETGYDYWGQGTQVTVSS | 0.89 nM | 160 nM | 315 nM | 83.4% | 49.9 nM | –
PP1114 MBP-5HVZ-PAPA-RN-30-H6 (VHH, Form: Dimer) VHH: QVQLVESGGGLVQPGGSLRLSCAASGIPASYLNMHWFRQAPGKQREWVAGAGGTNSNYYQDSVKGRFTISRDNAKNTVYLQMNSLKPEDTAVYYCAALDGAESYDYVYPVWGQGTQVTVSS | 1.64 nM | 6.12 nM | 18.9 nM | 76.3% | – | –
PP1095 MBP-5HVZ-PAPA-RN-2-H6 (VHH) VHH: QVQLVESGGGLVQPGGSLRLSCAASGSYFSKNAVHWYRQAPGKGREWVAALTNSGSGNYKDSVKGRFTISRDNAKNTVYLQMNSLKPEDTAVYYCTANISESTGQGYDYWGQGTQVTVSS | 1.18 nM | 90.9 nM | 193 nM | 76.8% | 16.9 nM | –
PP906 MBP-5HVZ-S1b-E7-H6 (VHH, Form: Dimer) VHH: QVQLVESGGGLVQPGGSLRLSCAASGGEFSDNGLHWFRQAPGKQREFVATASSDGSTQYRDSVKGRFTISRDNAKNTVYLQMNSLKPEDTAVYYCTALLMSSAGEYDVWGQGTQVTVSS | 1.97 nM | 378 nM | 988 nM | 69.6% | 205 nM | –
PP1176 MBP-5HVZ-PAPA-R2a-F3-H6 (VHH, Form: Dimer) VHH: QVQLVESGGGLVQPGGSLRLSCAASGSITSINWMHWFRQAPGKDREGVASISQTGRGSYADSVKGRFTISRDNAKNTVYLQMNSLKPEDTAVYYCAAASRTGTPYNYWGQGTQVTVSS | 0.27 nM | – | – | 58.4% | 2.67 nM | –
PP1099 MBP-5HVZ-PAPA-RN-12-H6 (VHH, Form: Dimer) VHH: QVQLVESGGGLVQPGGSLRLSCAASGSSFEGNAVHWFRQAPGKNREFVATITTSTSYYYADSVKGRFTISRDNAKNTVYLQMNSLKPEDTAVYYCAARLKDRGPQSEYDYWGQGTQVTVSS | 4.95 nM | 160 nM | 194 nM | 70.6% | – | –
PP931 MBP-5HVZ-R5a-F5-H6 (VHH, Form: Dimer) VHH: QVQLVESGGGLVQPGGSLRLSCAASGYHASILAMHWVRQAPGKEREWVASMTWSDMTQYSDSVKGRFTISRDNAKNTVYLQMNSLKPEDTAVYYCAATYVTRDRPWTHWGQGTQVTVSS | 2.07 nM | 110 nM | 134 nM | 57.5% | 127 nM | –
PP907 MBP-5HVZ-S1b-E11-H6 (VHH, Form: Dimer) VHH: QVQLVESGGGLVQPGGSLRLSCAASGSYASIASMHWFRQAPGKEREFVAGVTSGGSTNYGDSVKGRFTISRDNAKNTVYLQMNSLKPEDTAVYYCNALAGANYESQWEEYNYWGQGTQVTVSS | 3.7 nM | 120 nM | 263 nM | 76.3% | – | –
